Experiment: label from the status in PepcDB records
With “MVPSTFSRLKAARCLPVVLAALIFVGCGTHTPDQSTAYMQGTAQADSAFYLQQMQQSSDDTRINWQLLAIRALVKEGKTGQAVELFNQLPQELNDSQRREKTLLAVEIKLAQKDFAGAQNLLAKITPADLEQNQQARYWQAKIDASQGRPSIDLLRALIAQEPLLGAKEKQQNIDATWQALSSMTQEQANTLVINADENILQGWLDLQRVWFDNRNDPDMMKAGIADWQKRYPNNPGAKMLPTQLVNVKAFKPASTNKIALLLPLNGQAAVFGRTIQQGFEAAKNIGTQPVAAQVAAAPAADVAEQPQPQTADGVASPAQASVSDLTGDQPAAQPVPVSAPATSTAAVSAPANPSAELKIYDTSSQPLSQILSQVQQDGASIVVGPLLKNNVEELLKSNTPLNVLALNQPENIENRVNICYFALSPEDEARDAARHIRDQGKQAPLVLIPRSSLGDRVANAFAQEWQKLGGGTVLQQKFGSTSELRAGVNGGSGIALTGTPITPRATTDSGMTTNNPTLQTTPTDDQFTNNGGRVDAVYIVATPGEIAFIKPMIAMRNGSQSGATLYASSRSAQGTAGPDFRLEMEGLQYSEIPMLAGGNLPLMQQALSAVNNDYSLARMYAMGVDAWSLANHFSQMRQVQGFEINGNTGSLTANPDCVINRKLSWLQYQQGQVVPAS” the protein production was “not failed”.
For “MVQEEASCELAPREKKLSIRGAIVKLGNPGFPDASARSLPLNLERLRPGGGGCPQSGSQTLWCSSSLAECSHAEVTSSEGSPRTLGLRGESRDFPVISREGASKAGGGRSGRGQRLPRGSPAGLAGLWLLLLQIARLMARQRTVAGIGPGALLALRALLVAAHPQCLDFRPPFRPPQPLSFCAQYSAFGCCTAEQDAALARRFRALETRMDAGVWATCAGYALDLLCQECSPYAAHLYDAEDPATPLRTVPGLCEDYCLDMWQTCRGLFRHLSPDRELWALESNRAKLCRYLSLDDTDYCFPSLLVNENLNSNLGRVVADAKGCLQLCLEEVANGLRNPVAMVHAGDGSHRFFVAEQVGLVWTYLPDRSRLEKPFLNVSQAVLTSPWEGDERGFLGLAFHPRFPHPSKLYVYYSVGVGFREWIRISEFRISEDDENTVDHGSERIILEIEEPASNHNGGQLLFGDDGFLYIFTGDGGMAGDPFGKFGNAQNKSALLGKVLRIDVDRKERGLPYGIPLDNPFVDDPEARPEVYALGVRNMWRCSFDRGDPVSGTHRGRLFCGDVGQNKYEEVDLVERGRNYGWRAREGFECYDRKLCANASLDDVLPIFAYPHKLGKSVTGGYVYRGCEYPNLNGLYIFGDFMSGRLMSLRENPESGQWKYSEVCMGRGQTCAFPGLINNYYPYIISFAEDEAGELYFMSTGVPSATAARGVIYKVTDPSRRAPPGKCKIRPAQVKVKSHLIPFVPKEKFIRTSESTPRPTARAPTKAPRRRRPTAAPPAPTLRPTKPARPTRRPGARKGGGRRRGRPGTAVPEPQNGSVRLVRPSGLSPGRGRVEVFIGGRWGTVCDDGWDIKAAAVVCRQLGFAHAVRAAKRAEFGEGRALRILLDDVRCAGSERNLLECAHAGVGTHNCKHEEDAGVECSHEDPDL”, the protein production was “failed”.
In the case of “MVQFQNTLIKFHALSFKNANLIYNAKLNKTCYKENSNTIILRIKMLTQEDVLNALKTIIYPNFEKDIVSFGFVKNITLHDDQLGLLIEIPSSSEETSAILRENISKAMQEKGVKALNLDIKTPPKPQAPKPTTKNLAKNIKHVVMISSGKGGVGKSTTSVNLSIALANLNQKVGLLDADVYGPNIPRMMGLQSADVIMDPSGKKLIPLKAFGVSVMSMGLLYDEGQSLIWRGPMLMRAIEQMLSDIIWGDLDVLVVDMPPGTGDAQLTLAQAVPLSAGITVTTPQIVSLDDAKRSLDMFKKLHIPIAGIVENMGSFVCEHCKKESEIFGSNSMSELLEAYHTQILAKLPLEPKVRLGGDRGEPIVISHPNSVSAKIFEKMAQDLSAFLERVKKEKLADNKDIQPTQTHACSH”, the protein production is reported as “failed”.
In the case of “MVQHHNLYELSPMDTGWTICVMVLRINKKFLNPNAFELRFVLDDEWDTQIEATIRPRFSPFYFDRIEKNQWKTISTFLVRPNCEPIRTTPHEFRILFMDHTIITSSTS”, the protein production is reported as “failed”.
In the case of “MVQNLSREQYGFVIWVVGNNSIPEEIRSLTTFLSWENLGTCLLLDPNAHVGSLCCSHRRVLLVEEFLGSYLSWGILDFDLFVQSNALNGGVIDMLRRFGVEVHISQPPTKTKKRSNANRKGFPDIELGKAMHSRALERNPSPMLLISSDSRLHTDVSHITSLAFEIILFHTKKAPKDLKDLATKRVLWFDGVSKLTEVRI”, the protein production is reported as “failed”.
In the case of “MVQSLAKQVIHQAVEVNAQDIYIIPKGDCYELYMRIDDERRFIDVFEFNRMASLISHFKFVAGMNVGEKRRSQLGSCDYELSEGRLVSLRLSSVGDYRGQESLVIRILY”, the protein production is reported as “failed”.
With “MVQVPPPPPTGFADHASAAEDREAGDGPAPSIAEGLSAALFQSVVEALPVGTALLRDGVIVHANATLAGQIGETIDTLIGSPLTSYLTPADALAVQKVVEGAIALHGGVPVRRIAHIRHISGSERVYSLRFSPLDNGPHPLLVVITRDMTAQVAAENALRAAEGKYRAIFENAVEGIYQSTPDGTYLDVNPALARIYGYASPAELIAHFTDIASQLYVDGTKRGEFQRLMRETGEVRDFTAEVWRCDGHTIWITENARCVRGPDNEVLYYEGTVEDITAQRQSQETMRLLGKVFTSIAEGIVLLERDLTVRTVNPAFEAMTGLLRQDMEGRPARLFASGLHENDFLATVAAEVDRAGLWRGEIWGERREGPPYSGEMTVTAVRTRAGETTHYVAAITDITKRKRDEEHIRFQANFDMLTHLPNRHLIMDRLEQAMHQAQRTGRQVCVMFLDLDRFKQINDSYGHSAGDEVLKLTARRLRNCVRISDSVGRLGGDEFIVILSNVEDQHAGAYIAEKILYSLSEPFPIGGTEVFCIPSVGITYFPDHGETAPDLLRNADVAMYHAKQGGERRYAIFTPDMARRSLALLTMESDLRHALARDEFELHFQPKVRADLTLIGAEALIRWRHPEKGLINPGDFIPLAEESGLILPIGRWTLREACDRVMSWRAEGLTIPSVSVNVSPRQFQDQTLVETVRQILVETGLEPEALDLEITETVMTGDVEHAVGTLRALKDLGVTLSIDDFGTGYSSLNYLKTFPIDTLKIDQTFVRDVLHSGKDAAIVSTIIALARNLGFSVVAEGVEEIEQAEFLGSRDCQNFQGFLYSRPLPPAEFTTFLRTAKLETATPPDLVPSIAPGP” the protein production was “failed”.
With “MVRANKRNEALRIESALLNKIAMLGTEKTAEAVGVDKSQISRWKRDWIPKFSMLLAVLEWGVVDDDMARLARQVAAILTNKKRPAATERSEQIQMEF” the protein production was “not failed”.
In the case of “MVRGDDQLNGLQGGKRALDILCVATERTVSAFAYEEIGETSTEGDKRRERLRRLRRLINYSLSTTMNSSLSKRLKIDECKNQDPEQNPNRVASSPSSCHLESKRPQKVVSNKPVRNRKPVIVTDEDRTPTEWLIDVMREVNGMDAKLIFVKVLPNSDVDELQTRLMMPWKQILDMDFLNEEELEKIDRHHKKISASDKGADVIVVNSKGLQRKLKLKRWDMTSTSNYVLGLGWNKVVTDNILQRGTRLRIWSFHSPDMLFFAFVLSDPDPAPTECLNLLAKLCEETTCLEALQEANRMSSLVSDTELDLELRL”, the protein production is reported as “failed”.
In the case of “MVRRRQTSETGLLRQLPLALLIWGLFSLMMWVPAVYALTLNDHPTSRSFFYAGILGLVVVTTISLARAGRPSRHGLLGQLAVLLSTFAVLPLFLAVPFHDALKTTSFLNAYFEMVSAITTTGAEMFPDPGRLSAPLHLWRAQVGWLGGLVMWIAASAILAPLSLGGFEVTAQGQPGRVLVGQGESVDPRGRLLRVAATLAPVYAGLTLVVAILLLAAGDSGLVAICHAMSVMATSGISPVGGLSGGASGLTGEAILFLFMFFALSRLTFSSDTAMRGHARLDQDPEFRIGLLILLGVPALLFLRHWSGAIDIASGENLTLALRALWGSLFTVMSFLSTTGFESTDWAEARQWSGLGTPGMILLGLSVIGGGVATTAGGVKLLRVYALYLNGTRELQRLVHPSSVSSATGRNRRIQRGGAFIAWVFFMLFAISLAAIALALAAAGSDFETAMVLSIATLSTTGPLIEIGAQEPIRLIEMPAAAKLILSGAMIIGRLETLAFIALITPALWRN”, the protein production is reported as “failed”.
With “MVRVRFAPSPTGFLHVGGARTALFNFLFARKEKGKFILRIEDTDLERSEREYEEKLMESLRWLGLLWDEGPDVGGDHGPYRQSERVEIYREHAERLVKEGKAYYVYAYPEEIEEMREKLLSEGKAPHYSQEMFEKFDTPERRREYEEKGLRPAVFFKMPRKDYVLNDVVKGEVVFKTGAIGDFVIMRSNGLPTYNFACVVDDMLMEITHVIRGDDHLSNTLRQLALYEAFEKAPPVFAHVSTILGPDGKKLSKRHGATSVEAFRDMGYLPEALVNYLALLGWSHPEGKELLTLEELISSFSLDRLSPNPAIFDPQKLKWMNGYYLRNMPIEKLAELAKPFFEKAGIKIIDEEYFKKVLEITKERVEVLSEFPEESRFFFEDPAPVEIPEEMKEVFSQLKEELQNVRWTMEEITPVFKKVLKQHGVKPKEFYMTLRRVLTGREEGPELVNIIPLLGKEIFLRRIERSLGG” the protein production was “not failed”.
For “MVSKECCRNEIRAAIRQLSDRCLYSAAKWAGEQLVGIEQDPSNFTPANTRFQRGSSSIRRRFSTNESISTPLPSVGFSQAATPLPEEDEAIDGDIYLLAKSYFDCREYRRASHMLRDQVSKKSLFLRYYALYLAGEKRKEEEMIELEGPLGKSDAINRELVSLERDLSALRRTGAIDSFGLYLYGVVLKEKGNESLARASLVESVNSYPWNWSAWSELQSLCTSIEILNSLNLNNHWMKEFFLGNAYQELRMHTESLAKYEYLQGIFSFSNYIQAQTAKAQYSLREFDQVEIMFEELLRNDPYRVEDMDLYSNVLYAKEACAALSYLAHKVFLTDKYRPESCCIIGNYYSLKGQHEKAVMYFRRALKLNKKYLSAWTLMGHEYVEMKNTPAAIDAYRRAVDINPTDYRAWYGLGQAYEMMGMPFYALHYFRKSIFFLPNDSRLWIAMAKCYQTEQLYMLEEAIKCYKRAVNCTDTEGIALNQLAKLHQKLGRNEEAAYYFEKDLERMDAEGLEGPNMFEALVFLATHFKNHKKFEEAEVYCTRLLDYSGPEKEKAKSLLRGIRMAQTGFPSMDLEHFPI”, the protein production was “failed”.
With “MVSLPRLASLLTTRLATLKPALKPATHLASLGAQVIAELVPGIRMSPNRRRILPANMGAGFIGAEIAMWWALSPSLLPKPWWVTAANLAVLQAVGHAAATGIHSILPRTNRRVSRKIYNATHIATGAITLTTTVVGLIRHRTQIRLIGQKNFGPKETIAGISVGTLGYGALLITGELTQHSINEVKLLIERFLPPWISFIAAVSVITLTTLTLADRVLLRRILHNSAIQAAHLNRMVFPGTEQPWEPERSGSPWSYEKWGAVGSQGRAVLSGGPRKDDIITVTRLSDTETHEPIRIFIGMVPGRSLSDQVDLVIHEMRRTGALRRDHIVINNSTGTGWITDWSAHTFEFLTGGNCVTISMQYSYLPSALSWYKDNDGPINAARMLIDAVLHELDQLPTGSRPKLFLAGESLGAYGLAEVWGDVEKLLGTADGVLLSGAPRFSDAMNALRTRRDASSSERLPVIDSGRHIRFAGEPEHLDMPATWQFPRMIVAQHASDPIVWWNAELFIRRPEWLKTPKQDHQDVFPRLRWMPFVTGWQVALDLFTSTSVPGGHGHNYHEEFIDYWAALLDREVTPELRHSIAYWIRANHIKR” the protein production was “failed”.
With “MVSRRGVAGLDFDNRVRSLINTFGLVSVHVQCYFIISDLCLRDSSHQGIFLVSVTRSGCLMVHDFESLYCQSKLGPGSAEDESKHVVHFSYPPGREFDVARWNPSNQNEVACTSRKHDQVLIFDISYMSPKPTEVLQTRQKLSIIGRKISRGLSDVAITSDEDSRIFSPDTLGMVHVWDRRAGVSPCIELSTDRYDSIKSIQIYVDNQTIFGAGKEGIIHIWDLRGGRNSSAFQSRKDVSLTRGELELAMAMSQLPLASLHLAPKLQKIASLKAQSEIVPKEIHSIDVNPSSPHQLAFHLDDGWSGVLDIYKSEVTHVHCPPPAWLDGSNSSADLILRKPSWLPTSSIYVVGSMSEKGIHVLDFHPSSRSPCHVDYDEDTQRNEKRDKCNHRNKFVSLSETVTGCAAHPLNGMIVAGTQNSSLLLIAQMHCSSSSETAEGEL” the protein production was “failed”.
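Further: failed if final PepcDB status was selected cloned or expressed and not failed if soluble or beyond.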
